This note sets out measurements from PMC4570213.

The data set concerns the target SP1 (endogenous, PIG1 nuclear extract) (UniProt P08047). As to the kind of experiment: EMSA, supershift. The conditions noted are these: 10 ug PIG1 nuclear extract, 300 fmol biotin probe, 1.5 ug poly(dI-dC), kit binding buffer (LightShift; composition, salt and pH not given), 15 ul, 20 min room …. For orientation: A gel shift assay detects complexes by their altered migration in electrophoresis.

Bounds are passed on as bounds.

SP1 (endogenous, PIG1 nuclear extract), sequence (P08047 whole entry): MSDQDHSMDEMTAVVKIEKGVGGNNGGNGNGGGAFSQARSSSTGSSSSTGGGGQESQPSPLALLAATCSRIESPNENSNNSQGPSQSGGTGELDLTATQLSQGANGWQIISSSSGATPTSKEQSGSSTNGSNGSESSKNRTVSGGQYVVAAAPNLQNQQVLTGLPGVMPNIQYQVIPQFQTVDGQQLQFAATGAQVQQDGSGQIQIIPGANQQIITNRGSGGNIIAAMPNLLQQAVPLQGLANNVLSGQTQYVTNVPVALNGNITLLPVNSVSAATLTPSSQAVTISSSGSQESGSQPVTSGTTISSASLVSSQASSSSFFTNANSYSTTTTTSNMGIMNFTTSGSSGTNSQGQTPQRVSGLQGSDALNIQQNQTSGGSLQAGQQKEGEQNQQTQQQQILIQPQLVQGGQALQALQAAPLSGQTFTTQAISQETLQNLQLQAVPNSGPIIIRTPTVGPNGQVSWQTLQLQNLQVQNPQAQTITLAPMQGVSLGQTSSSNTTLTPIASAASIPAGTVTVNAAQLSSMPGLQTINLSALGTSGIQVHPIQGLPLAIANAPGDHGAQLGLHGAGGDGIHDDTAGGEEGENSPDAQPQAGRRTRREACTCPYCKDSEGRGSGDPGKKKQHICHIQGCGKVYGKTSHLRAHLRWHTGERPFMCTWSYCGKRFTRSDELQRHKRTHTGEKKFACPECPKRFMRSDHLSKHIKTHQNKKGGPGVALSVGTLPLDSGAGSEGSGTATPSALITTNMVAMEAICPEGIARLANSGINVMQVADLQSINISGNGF

With “AAGATGGAATGGAATCCAGATGGGCGGGGG (double strand) [AHR promoter -129T probe]”, the binding signal (% of -129C band) was > 100. As for “AAGACGGAATGGAATCCAGATGGGCGGGGG (double strand) [AHR promoter -129C probe]”, the figure is 100.
